Experimental data taken from US20220251236A1 (Boehringer Ingelheim, published 2022).

B1: DLL3#5/CD3#1 (bispecific antibody, human IgG1, kappa, lambda, L234A L235A)
chain 1: not shown
chain 2: EAVVTQEPSLTVSPGGTVTLTCRSSTGAVTTSNYANWVQEKPGQLPRGLIGGTNKRAPWVPARFSGSLLGGKAALTLSGAQPEDEAEYFCALWYSNLWVFGGGTKLTVLGQPKAAPSVTLFPPSSEELQANKATLVCLISDFYPGAVKVAWKADGSPVNTGVETTTPSKQSNNKYAASSYLSLTPEQWKSHRSYSCQVTHEGSTVEKTVAPAECSGGGGSEGKSSGSGSESKSTEGKSSGSGSESKSTGGGGSEVQLVESGGGLVQPGGSLKLSCAASGFTFNTYAMNWVRQAPGKGLEWVARIRSKYNNYATYYADSVKDRFTISRDDSKNTAYLQMNNLKTEDTAVYYCVRHGNFGNSYVSWFAYWGQGTLVTVSAASTKGPSVFPLAPSSKSTSGGTAALGCLVKDYFPEPVTVSWNSGALTSGVHTFPAVLQSSGLYSLSSVVTVPSSSLGTQTYICNVNHKPSNTKVDKRVEPKSCDKTHTCPPCPAPEAAGGPSVFLFPPKPKDTLMISRTPEVTCVVVDVSHEDPEVKFNWYVDGVEVHNAKTKPREEQYNSTYRVVSVLTVLHQDWLNGKEYKCKVSNKALPAPIEKTISKAKGQPREPQVYTLPPSREEMTKNQVSLSCAVKGFYPSDIAVEWESNGQPENNYKTTPPVLDSDGSFFLVSKLTVDKSRWQQGNVFSCSVMHEALHNRFTQKSLSLSPG
notes: Heterodimer of one DLL3 chain and one CD3 chain (scFab-Fc, knob-in-hole)
B2: DLL3#13/CD3#1 (bispecific antibody, human IgG1, kappa, lambda, L234A L235A)
chain 1: DVLMTQTPLSLPVSLGDQAAISCRSSQSIVHSNGNTYLEWYLQKPGQSPKVLIYKVSNRFSGVPDRFSGSGSGTDFTLKISRVEAEDLGVYYCFQGSHVPYTFGGGTKLEIKRTVAAPSVFIFPPSDEQLKSGTASVVCLLNNFYPREAKVQWKVDNALQSGNSQESVTEQDSKDSTYSLSSTLTLSKADYEKHKVYACEVTHQGLSSPVTKSFNRGECGGGGSEGKSSGSGSESKSTEGKSSGSGSESKSTGGGGSQIQLVQSGPELKKPGETVKISCKASGYTFTNYGVTWVKQAPGKGLKWMGWINTYSGAPTYADDFNGRFALSLETSASTAYLQINNLKNEDTATYFCARLDDYDLYYFDYWGQGTALTVSSASTKGPSVFPLAPSSKSTSGGTAALGCLVKDYFPEPVTVSWNSGALTSGVHTFPAVLQSSGLYSLSSVVTVPSSSLGTQTYICNVNHKPSNTKVDKRVEPKSCDKTHTCPPCPAPEAAGGPSVFLFPPKPKDTLMISRTPEVTCVVVDVSHEDPEVKFNWYVDGVEVHNAKTKPREEQYNSTYRVVSVLTVLHQDWLNGKEYKCKVSNKALPAPIEKTISKAKGQPREPQVYTLPPSREEMTKNQVSLWCLVKGFYPSDIAVEWESNGQPENNYKTTPPVLDSDGSFFLYSKLTVDKSRWQQGNVFSCSVMHEALHNHYTQKSLSLSPG
chain 2: B1 chain 2
notes: as for B1
B3: DLL3#17/CD3#1 (bispecific antibody, human IgG1, kappa, lambda, L234A L235A)
chain 1: DIQMTQSPASLAASVGETVTITCRASENIYYSLAWYQQKQGKSPQLLIYNTNSLEDGVPSRFSGSGSGTQYSMKINSMQPEDTATYFCKQAYDFPLTFGAGTKLELKRTVAAPSVFIFPPSDEQLKSGTASVVCLLNNFYPREAKVQWKVDNALQSGNSQESVTEQDSKDSTYSLSSTLTLSKADYEKHKVYACEVTHQGLSSPVTKSFNRGECGGGGSEGKSSGSGSESKSTEGKSSGSGSESKSTGGGGSQIQLQQSGPEVVKPGASVKISCKASGYTFISYYIHWVKQRPGQGLEWIGWIYPGDGSTNNNEKFKGKTTLTADKSSSTAYMLLSSLTSEDSAVYFCARGEGNAMDDWGQGTSVTVSSASTKGPSVFPLAPSSKSTSGGTAALGCLVKDYFPEPVTVSWNSGALTSGVHTFPAVLQSSGLYSLSSVVTVPSSSLGTQTYICNVNHKPSNTKVDKRVEPKSCDKTHTCPPCPAPEAAGGPSVFLFPPKPKDTLMISRTPEVTCVVVDVSHEDPEVKFNWYVDGVEVHNAKTKPREEQYNSTYRVVSVLTVLHQDWLNGKEYKCKVSNKALPAPIEKTISKAKGQPREPQVYTLPPSREEMTKNQVSLWCLVKGFYPSDIAVEWESNGQPENNYKTTPPVLDSDGSFFLYSKLTVDKSRWQQGNVFSCSVMHEALHNHYTQKSLSLSPG
chain 2: B1 chain 2
notes: as for B1
B4: DLL3#18/CD3#1 (bispecific antibody, human IgG1, kappa, lambda, L234A L235A)
chain 1: DIQMTQSPASLAASVGETVTITCRASENIYYSLAWYQQKQGKSPQLLIYNANSLEDGVPSRFSGSGSGTQYSMKINNMQPEDTATYFCKQAYDVPLTFGAGTKLELKRTVAAPSVFIFPPSDEQLKSGTASVVCLLNNFYPREAKVQWKVDNALQSGNSQESVTEQDSKDSTYSLSSTLTLSKADYEKHKVYACEVTHQGLSSPVTKSFNRGECGGGGSEGKSSGSGSESKSTEGKSSGSGSESKSTGGGGSQVQLQQSGPDLVKPGASVKMSCEASGYTFTAYFIHWVKQKPGQGLEWIGYIDPFNDDTNYNVKFKGKATLTSDTSSSIAYMELSSLTSEDSSFYYCARGTSATLDYWGHGTTLTVSSASTKGPSVFPLAPSSKSTSGGTAALGCLVKDYFPEPVTVSWNSGALTSGVHTFPAVLQSSGLYSLSSVVTVPSSSLGTQTYICNVNHKPSNTKVDKRVEPKSCDKTHTCPPCPAPEAAGGPSVFLFPPKPKDTLMISRTPEVTCVVVDVSHEDPEVKFNWYVDGVEVHNAKTKPREEQYNSTYRVVSVLTVLHQDWLNGKEYKCKVSNKALPAPIEKTISKAKGQPREPQVYTLPPSREEMTKNQVSLWCLVKGFYPSDIAVEWESNGQPENNYKTTPPVLDSDGSFFLYSKLTVDKSRWQQGNVFSCSVMHEALHNHYTQKSLSLSPG
chain 2: B1 chain 2
notes: as for B1

Legend:
[1] = biological target: T1, Human CD3 E+G HuFc-6xHis (human); assay: SPR (ProteOn XPR36), HuCD3E_HuCD3G-Fc amine-coupled, bispecific as analyte, Example 4B
T1 construct: also called hu CD3εγ-Fc
Outline: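 Human CD3ε/γ-Fc fusion is amine-coupled to the chip at pH 4.5. Anti-DLL3/CD3 bispecifics are injected as analyte in PBS-T-EDTA at 30 μl/min, with 600 s association and 1800 s dissociation. Binding kinetics are measured by SPR.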

[2] = biological target: T2, EGF3+4; assay: flow cytometry on HEK293 cells expressing the DLL3 subdomain construct, PE anti-human secondary, control: secondary antibody only
T2 construct: also called Hu DLL3 EGF3+4 on HEK293 cells
T2 membrane-anchored DLL3 subdomain construct: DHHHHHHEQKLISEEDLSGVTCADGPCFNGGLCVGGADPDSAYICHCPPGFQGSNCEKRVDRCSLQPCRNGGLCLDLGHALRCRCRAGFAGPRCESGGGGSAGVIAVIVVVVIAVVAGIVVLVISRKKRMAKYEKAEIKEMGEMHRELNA
Outline: (§1)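 Binders tested on HEK293 cells displaying the DLL3 subdomain construct; bound molecules detected by flow cytometry using PE-conjugated anti-human secondary antibody. Negative control: cells with secondary antibody only.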

[3] = biological target: T3, EGF5+6; assay: as above
T3 construct: also called Hu DLL3 EGF5+6 on HEK293 cells
T3 membrane-anchored DLL3 subdomain construct: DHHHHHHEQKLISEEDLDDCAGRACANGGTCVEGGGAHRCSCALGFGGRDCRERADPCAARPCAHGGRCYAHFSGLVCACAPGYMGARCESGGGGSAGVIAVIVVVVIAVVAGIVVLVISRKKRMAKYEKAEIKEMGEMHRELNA
Outline: as §1

[4] = biological target: T4, EGF2+3; assay: as above
T4 construct: also called Hu DLL3 EGF2+3 on HEK293 cells
T4 membrane-anchored DLL3 subdomain construct: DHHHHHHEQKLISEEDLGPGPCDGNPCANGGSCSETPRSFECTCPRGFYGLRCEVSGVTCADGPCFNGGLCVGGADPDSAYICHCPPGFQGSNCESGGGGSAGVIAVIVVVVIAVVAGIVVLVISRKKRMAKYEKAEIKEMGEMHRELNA
Outline: as §1

[5] = biological target: T5, EGF6+MEMBRANE PROXIMAL PEPTIDE; assay: as above
T5 construct: also called Hu DLL3 EGF6+membrane proximal peptide on HEK293 cells
T5 membrane-anchored DLL3 subdomain construct: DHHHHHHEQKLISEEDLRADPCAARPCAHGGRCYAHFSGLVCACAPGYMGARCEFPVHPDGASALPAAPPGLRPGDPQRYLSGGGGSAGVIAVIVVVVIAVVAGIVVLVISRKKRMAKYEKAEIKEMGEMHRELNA
Outline: as §1

[6] = biological target: T6, EGF4+5; assay: as above
T6 construct: also called Hu DLL3 EGF4+5 on HEK293 cells
T6 membrane-anchored DLL3 subdomain construct: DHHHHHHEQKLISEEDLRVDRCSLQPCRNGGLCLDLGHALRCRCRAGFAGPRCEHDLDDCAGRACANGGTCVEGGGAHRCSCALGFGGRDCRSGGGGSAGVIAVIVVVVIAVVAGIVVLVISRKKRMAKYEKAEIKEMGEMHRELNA
Outline: as §1

[7] = biological target: T7, FLAG-tagged human DLL4 full length (human, UniProt Q9NR61 1-685); assay: flow cytometry on HEK293 cells expressing human DLL4 (HEK293-huDLL4), PE anti-human secondary, control: secondary antibody only
T7 construct: also called human DLL4 on HEK293 cells
Method: Bound molecules were detected with PE-conjugated anti-human secondary antibody (Sigma-Aldrich, #P8047). As negative control, cells were incubated with secondary antibody only. The samples were measured by flow-cytometry.

[8] = biological target: T8, EGF1+2; assay: flow cytometry on HEK293 cells expressing the DLL3 subdomain construct, PE anti-human secondary, control: secondary antibody only
T8 construct: also called Hu DLL3 EGF1+2 on HEK293 cells
T8 membrane-anchored DLL3 subdomain construct: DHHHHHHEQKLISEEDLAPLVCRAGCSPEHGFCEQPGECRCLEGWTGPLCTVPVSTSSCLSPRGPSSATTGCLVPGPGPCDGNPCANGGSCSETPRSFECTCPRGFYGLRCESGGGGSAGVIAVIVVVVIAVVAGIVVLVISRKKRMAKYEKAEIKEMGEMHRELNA
Outline: as §1

T1 sequence (chain, as listed by the source limits assumed): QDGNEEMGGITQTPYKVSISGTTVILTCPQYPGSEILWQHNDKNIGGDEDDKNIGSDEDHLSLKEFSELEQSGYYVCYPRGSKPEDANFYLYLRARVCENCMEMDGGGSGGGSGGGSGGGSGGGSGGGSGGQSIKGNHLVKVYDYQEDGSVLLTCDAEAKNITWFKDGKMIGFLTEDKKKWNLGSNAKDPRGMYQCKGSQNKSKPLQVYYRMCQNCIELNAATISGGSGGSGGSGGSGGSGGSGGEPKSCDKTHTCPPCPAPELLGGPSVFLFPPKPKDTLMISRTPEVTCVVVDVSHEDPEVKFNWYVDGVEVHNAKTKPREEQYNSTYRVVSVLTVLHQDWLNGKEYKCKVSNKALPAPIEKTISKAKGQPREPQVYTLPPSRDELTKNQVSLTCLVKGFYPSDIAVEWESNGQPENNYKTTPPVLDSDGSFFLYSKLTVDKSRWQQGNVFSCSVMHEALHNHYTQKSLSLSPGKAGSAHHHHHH
T7 sequence (Q9NR61 other isoform, or with tags, fused parts or gaps limits assumed): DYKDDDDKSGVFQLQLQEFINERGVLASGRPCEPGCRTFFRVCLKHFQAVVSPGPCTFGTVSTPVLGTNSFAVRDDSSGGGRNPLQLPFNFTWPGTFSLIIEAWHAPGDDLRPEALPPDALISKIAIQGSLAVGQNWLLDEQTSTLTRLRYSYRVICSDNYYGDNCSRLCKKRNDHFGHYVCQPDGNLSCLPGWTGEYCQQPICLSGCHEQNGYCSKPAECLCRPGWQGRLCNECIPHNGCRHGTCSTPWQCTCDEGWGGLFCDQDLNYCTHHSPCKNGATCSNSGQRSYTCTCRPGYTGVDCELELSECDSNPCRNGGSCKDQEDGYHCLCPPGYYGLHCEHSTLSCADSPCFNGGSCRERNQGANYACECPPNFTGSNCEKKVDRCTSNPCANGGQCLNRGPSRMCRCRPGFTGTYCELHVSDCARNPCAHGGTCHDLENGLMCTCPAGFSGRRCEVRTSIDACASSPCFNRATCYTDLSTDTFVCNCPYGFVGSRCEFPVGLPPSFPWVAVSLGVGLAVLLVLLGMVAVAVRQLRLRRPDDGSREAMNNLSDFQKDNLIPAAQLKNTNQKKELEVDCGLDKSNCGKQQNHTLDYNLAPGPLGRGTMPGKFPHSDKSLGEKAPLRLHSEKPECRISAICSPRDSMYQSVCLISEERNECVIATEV

Binder	Kd [1] [nM]	binding result [2]	binding result [3]	binding result [4]	binding result [5]	binding result [6]	binding result [7]	binding result [8]
B1	3	no binding (tested: 1.6 nM)	no binding (tested: 1.6 nM)	no binding (tested: 1.6 nM)	no binding (tested: 1.6 nM)	no binding (tested: 1.6 nM)	no binding (tested: 1.6 nM)	
B2	3	no binding (tested: 1.6 nM)	no binding (tested: 1.6 nM)	no binding (tested: 1.6 nM)	no binding (tested: 1.6 nM)	no binding (tested: 1.6 nM)		no binding (tested: 1.6 nM)
B3	2	no binding (tested: 1.6 nM)	no binding (tested: 1.6 nM)	no binding (tested: 1.6 nM)	no binding (tested: 1.6 nM)	no binding (tested: 1.6 nM)		no binding (tested: 1.6 nM)
B4	3	no binding (tested: 1.6 nM)	no binding (tested: 1.6 nM)	no binding (tested: 1.6 nM)	no binding (tested: 1.6 nM)	no binding (tested: 1.6 nM)		no binding (tested: 1.6 nM)
